The target in test [1] is Y118A SsuE (UniProt P80644). Briefly: other fluorescence titration.
Test [2] addresses wild-type SsuE (NADPH-dependent FMN reductase of the alkanesulfonate monooxygenase system) (UniProt P80644). Nature of the test: other fluorescence titration.

B1: wild-type SsuD (FMNH2-dependent alkanesulfonate monooxygenase) (enzyme)
chain: MSLNMFWFLPTHGDGHYLGTEEGSRPVDHGYLQQIAQAADRLGYTGVLIPTGRSCEDAWLVAASMIPVTQRLKFLVALRPSVTSPTVAARQAATLDRLSNGRALFNLVTGSDPQELAGDGVFLDHSERYEASAEFTQVWRRLLQRETVDFNGKHIHVRGAKLLFPAIQQPYPPLYFGGSSDVAQELAAEQVDLYLTWGEPPELVKEKIEQVRAKAAAHGRKIRFGIRLHVIVRETNDEAWQAAERLISHLDDETIAKAQAAFARTDSVGQQRMAALHNGKRDNLEISPNLWAGVGLVRGGAGTALVGDGPTVAARINEYAALGIDSFVLSGYPHLEEAYRVGELLFPLLDVAIPEIPQPQPLNPQGEAVANDFIPRKVAQS
Turning to B1, the Kd stood at 122 nM in test [1] and 40 nM in test [2].

As a reminder, the Kd is the equilibrium constant for the complex coming apart. Low readings indicate tighter binding, high ones weaker binding.
